This passage reports stoichiometry N results from PMC7164962.

As usually defined, the stoichiometry N is the number of molecules, sites or subunits per partner or assembly.

This test concerns the target ADHA, alcohol dehydrogenase from Candida magnoliae DSMZ 70638, wild type (Candida magnoliae DSMZ 70638). Briefly: crystal structure; purified enzyme, sitting drop, 20% w/v PEG 3350, 0.2 M sodium citrate; with or without 1 mM NADP+; quaternary structure seen in the crystal.

As to “ADHA, alcohol dehydrogenase from Candida magnoliae DSMZ 70638, wild type (enzyme)”, the stoichiometry N came to 4.
